The nature of this data set: protease stability score; higher = more stable; yeast display proteolysis, trypsin and chymotrypsin.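 Note: relative to predicted unfolded state with 0 unfolded-like and 1 meaning tenfold more protease.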
“TEEHHFAERVVREWLKLYYTGDEERNETLADPNVKLDVNGRHYHGRESVSEFLREVYEHWRIREFHIHEFDVFNGVSHVDGELILEINGQKHRYRVRIIIVVINGRLKHIELNQV” yielded a protease stability score of 1.56.
The figure for “DEHDELIERIARIYFEDELTGDWDSMMRLMDPRTRDDYNGKERHGWEEVETFFEELRKKFKGMKFHLEHLDVIGNKVHIIARWNVNGRHVQVHIDIIAFDGRVKSFSERVDIR” is 1.15; for “DERHEKAERVTRELIKLLITGDEDLLDDLIDPNARIEIGDKVTHGRDKFSREISEMGVDHVELKEIHVYGDKAIIKGKLDINGKRNKFILIMEKINGRWFLRSMRVEDH” it is 1.32; for “SEEEEHIREHSERFIEAWKTGDWEELSRMIDPHARIVVNGKEVHGRSDIERMLRETMEKMGANHIQEESVHYQGNKIILHETVNVGDKRLRLTIVIHVVNGKVRRVEFHIEQR” it is 2.17.
The figure for “SEDEKERDMIAELFVRSLVTGDEELIKDLIDPNVKLDIGDKSRHGRENFTRQILHFGVDHVDVTEMHVQGEKVNLRGNWNINGVDLDVINYVTKVNGKWLLTRVEIK” is 1.14; for “DEEEEFQRELVKLLVEWVHTGDWEHISKYADPHVKVHVDGRDSIGREEMRKTLKRFSDLLGADHIRFEHVRIIDGRVTIHSRVEYGDKEHHIIIQSSKIDGRWYLHSVDIR” it is 0.995.
In turn, “SEDEDLFHHVLHVWLNAMETGDFEVFKHLLDPRTKEHQGDKHLIGREDALRKFREEWEKYPNMRVEIRVDDWDIQGNKIRAKVHIIIRQGDKTYSVEIDLIMVKVNGRWFIHSIIIH” returned a protease stability score of 0.966.
In the case of “DEDEEEAKEFLRIYIEALRTGDEDLWKEMADPNMRLIVGDKERHGRESYTHWERELGYRLEHIHIDHVTFQGDKVDVETTLRIHINGQTHDVEIHLIVTKIDGRWHMKEIIIK” it was 1.08; in that of “DNDQEKIKELARLAEQVMQTGNEKLLRELFDPHARIDIDGKTLHGWKDLLEFTRHELERIDHVVFTVRRVDLQGDKVRVETEVNIDINGKKMTLETTLLIDKFDGRWFLRTIEWE”, 1.8; in that of “SEQEEITKKATEDMLRNIETGDPDMIDHLLDPDVRQEIIINGRSHENHGMEKLRKWLSTWHDEFKNVKYDLRTVEIIDGRVRIEGVLNVDGVDLHIEIRLVIVNGKLREVYHHVD”, 1.36.
The sequence “SEDDQLVRELMRRIMKNIMTGDEEKHLNLVDPHARTIFDGREYHGRELYTMVFRILYNRIDHWTDLKVEHVSIYDGVIEIHVRADVDINGKRTEITMIIFVNKVNGRWIIEYVVYS” returned a protease stability score of 1.37.
Turning to “SEEERLTEEFLTKFEEILETGDEELLWRLIDPHARTLFDGQEFHGREDFVMIFDELVRHAGFDVRHIHSIHVQGDKIEVRSTMVVNGRNFEIRLHLRKINGRWHIEEIEIR”, the protease stability score turned out to be 2.7.
“SEEEEFTKLLLELLAHALRTGDESMLQYLADPNVRIDINGKELHGMEVLTHWLRRIDHIDSFFHIDHIDLVDGKLKVNGRTELIVRQGDKSHHSEWDVRIISDKVNGRWLLESISFK”: the protease stability score was 2.08.
The figure for “SEREHLADRFVKELTTALQTGDEEKIREMFDPHMKLIINGVTFHGWEELEKIRKRVDHIEHVEVRIEDVRIINGVVEIKGELHVHERVGDKIIDRSNDQTYFVEKVNGRWILKQVELH” is 1.14; for “SEEEKRWEDWARLMLNWLRTGDEEKISNLMDPNAKSETLIDGRRVEYHGREEVSRFLFELFEEFGIDHLHVRHYDVFDGVFHAHFRVHVGEKERELEVEFHVVDGRITVDTVKFH” it is 1.5.
Consider “DEREEMVERFLTEWLRSLVTGDWEDSEKLFDPNVRIHVNGREFHGRHEAIKHFHELRIHKIELKSIDIQGNKAHVDVEVDGNVNGQNRIIKVNLFFKKVNGRWYFEQVEIH”, for which the protease stability score was determined as 1.24.
In the case of “DEELNEWEEWMRRAMKADETGDEDTVTHMLDPNVKFDIDGVELVGREEFIRFFRELRISFHHFKFDHIRDINGRVRVEGTVHLEIIIGEFRHRDDRRTERIELKINGRWYIHSMKIG” it was 1.18; in that of “HEVERIVEESDRHLLNSMLTGNEDELWRLLDPNARLDINGVQSIGRDEAYRVFHELLNHLRLREVDVHEMDVQGDKAHLTFKFNGDFNGKRDYLDFQVNSLKINGRWFLHSSSLI”, 0.529.
The sequence “SRAEEEARHLLHLLIHSLNTGDEDTSRKMLDPHVRLIIDGREHHGREDLLWFLRFLGFDHVHHVELHDLHDVNGRIKVDVKFHMFVGDKLIKTTVIYFILKINGRWVFESIKVE” gave a protease stability score of 1.23.
Regarding “DDWEEILREMIERWLKIFLTGDEEQLQRLADPDTRLNFNGREHHGMETLRRWRHRYEEEMRVRRINVKHEEFQGEKIRMDTELHTEVNGVKIITRTELIFIIINGRIKEVEIRVK”, the protease stability score stood at 0.853.
The figure for “SDTEHDARRVIEELSKALLTGDWRRIEELLDPNTRWVFNGQEFHGMEIVIKVLIHLRRHMTHVEFHDIHTIDGRVHSDTEFDVSLIINGKTERTRVHVEFIIRKVNGRWRIEEVRFE” is 2.25; for “DEESRLIEEFIKKVTHALRTGDEHRMHHLLDPHVRFYIGDKFLIGRENMAHLIRWLIEHLGVDHTHLESSSIINGKSFLDTRMHVDGQEIEVRFIIVLFDGVVNRVHYQIE” it is 1.1; for “SEEEELWEELKELSEEWFETGDEDRLLEMADPHVKVVFNGKHEHGREALRLVLETMKRRFKNATYHPHTIELQGEKVFLKIKVRVGDKEQELEIILIIVDGRLKEIRIHIRIK” it is 2.62.
“HEEERIVEEVAKHFLHHFVTGDWHNLARLADPHVRSDINGRELHGWETLIHVMLKDLRRLGFKHFEVHHVHIQGDKYHNDGTLDYNGVKVRSHLEFQIVDGKLHQMRVQDK” came in with a protease stability score of 1.07.
The figure for “SELERQIERANRELVDIIYTGDEHLVDRMLDPRTLLTVGDKHTIGREEMIEWFKHHIREMRIRHSDTKDPHFINGVIDSHLYLDMEFDGRRFISRTRLIVLKIDGRWHIERITII” is 0.687; for “SEEEEEFRERLRILYEKLLTGDWRFFLKLADPNVRSIIDGRTWIGRDEFETAMRKFDEDLGFDHTHIRHYHIQGEKVQIHFEVRQGDKRITVEINLVIVNGRYKFVELRLSIH” it is 1.4; for “SELEEAVRRWLELFFKLFWTGNEEILTDLFDPNVRLEVGDKVFIGREEVSRHLREFRERVKNLRMHVHDVKLINGVVHMDIEIDINGVRTKAHTDWIVIDGRHHSQIIKIN” it is 0.525.
The figure for “DDERRDTKLAIDLWVETWHTGDEQMFEDLADPHTRIIIGDKEHVGREEAVRYSSELIRRLGANHVDVTFRETRMYNGRIDVKGEINLHIGDKDHHREVHVYSRKIDGRWVLERIEFR” is 1.3; for “DEELKALEDLSKKEIEAHLTGDEDTLVQLADPNMKILYNGREFHGWNVWKKISSKMIEEMRLRRVELEHVHVINGQIDSHGILDVEVNGRRVKERMHIVMLKVNGRWLIHSVEYR” it is 1.27; for “SEDEELSKKAVEDILRNLETGDWETISRMADPHVRVDFNGVDIHGREVMSKMFEDELRDLGVTKVDVRLHDVDSQGDKVIVHHRVHVNGRTEEVEVHATKFNGKWVIKKMTVRVK” it is 1.19.
In the case of “DEDEELAKKAVEEFFTAWETGNEERLEELMDPNVRSHINGVDLHGMERTSEYIRRLGHTKVETYLRRVRVFENRVEVDGDIIVDGRKHKFHLDMRKINGRWFIHRVSVK” it was 2.42; in that of “DEHEKEWQELFRLAAHVLETGDEKMLQHLIDPSARTRINGKYTHGWEESARTLHEIRRRLGIDHEEITDHEIQGDKVIIHGRSQVGDKNFTVNIEWIIVNGRLKSVNFTIH”, 0.55.
“DEHEEYMEELVKSIYTLWKTGDEDTLLSLFDPNMRILIDGVDAVGRENFKEEFRRFKEEIRHKDHKIHHIDIQGEKIRTEVLVHGIWDGVDTTLHVEIRIVVINGRVKSIEFHFT” yielded a protease stability score of 1.74.
Take “SKDEKTLSHFIKFLEDVEKTGNFEDFYELMDPDAKLVVNGVEHHGRDEFTRFIKEFMDRVDHIHYTDVHHIILQGDKVIIDAKVRGVWDGVERELRVKIIIVKINGRWYLKSFEEE”: the protease stability score turned out to be 1.87.
The figure for “QEDRERAERIINELMENELTGDEDRLRELADPRVRVEYDGQEHIGMELRSTWIKEMRFDHIHVDIDEFEFQGNKIHIKARFHIDVNINGRKRRYTVETFLVMKKINGVWFIKDIVFH” is 1.36; for “DEDDENNREMHDLSIRLFKTGDFDKIHKLMDPNAKLVIDIGDKHLHHHGREEASKRIFEIWHTLGVDHVHIKTHRHYGEKITIDMHLDINGQDTELIIVVLKINGRWLIQSVSMHFR” it is 1.35.
“DEDHEDMRKILELLRTAYETGDERVHEHLLDPNTRLHIGEFNNVGWHNVLEFFEQHQKELGVKHIELRLEDFDKQGDFLIIHGRLIVNVNGKRINVHLEVHMHKVNGRWYDRERRVL” gave a protease stability score of 0.928.
In the case of “SEEEEEAHRYQEEWKRVHRTGDEDRFRELMDPNVRIHLNINGKNIHLHGRQLAVDFLRHIHLHWRDHEIHTHDIRHFNGVTHVTGRLDGEVNGRRIDTHVEFHHHVFNGRIKSIIIIVH” it was 1.33; in that of “SEDDEEVRIALDIQRELFRTGDWRSIEEFLDPNVRVHVGDKEIHGMEELLRYYTHIMNHLGAKHWHVTEYTSIGDFVHIDGEFIQGDKTFHLKIHLLKFNGRWIIHSRIID”, 1.22; in that of “SEEEEQVKELIKWLIEVWLTGNEEFIRDLADPHVRMHIEQGDKKVDSHGRETLLKDLERYRREIRFEYIEIHDIRIYNGRAEVDGRLFGLINGQRMELNVILIFVVVDGKIREIAVHIR”, 0.26.
The figure for “SEDEEDLRRIFELLMELWLTGDERHMEHLIDPNAKLHYDGVEYHGREDARRLIHRFDVFEDARVRRVRLIDGQVRMDTHFIGRVDGRRIQVDSIIFMRKINGRWVSKEEVYV” is 1.34.
With “TEEEEYLRKLTKDFIEAFLTGNWKEVARLLDPHTRLHVGEFEIHGREEMMKFMIELITRAGIKHQHIKSFETRIINGVVFLHVHMIVIVNGRNIERRLHVLFVKIDGRWTIEEVSEEHE”, the protease stability score was found to be 1.46.
“SEEKEDIDLAMEIFLHALETGDWEELLRQMDPNVRIVIGDKETHGREEFELTLLKLGIDHFHIKDMKLINGRLHLDTRVHFNGVTVQTEIIIVKFNGRWVIEEMDFQ” returned a protease stability score of 2.4.
The figure for “DEDFENASRTLKKFYEDEATGDEDALSELVDPNTRLDINGQQVHGWENFRKWIHHLGIKHVILHIRRYDSQGDKLHLETEEVHDFNGVEERRDTRLLLLKVDGKWIFKEIEVK” is 1.41; for “HEDEHLSRRFAELVLTYLETGDEDSILEMADPHVRTELIIGDKTFRYIGRENLERWLHEVLRKFKNLRFVPKRLHIQGDKVIMRGYVIFDGRTHETEMIWIVINGRIHAVLHHEH” it is 1.81; for “DEDDEHSEEIAKMWMHLVHTGDFDSETKLVDPHVKFKIDGREIIGREVFMQLMIELRHILRDSKIDDLNRQGEFLHVHGQVHGELIIGDKNFEINHKVEFIIIKVNGRWFAHTIIFR” it is 1.64.
The figure for “SETERKVREVLRLLDESLTTGDEREFRHLFDPNARLEIGDWEIHGMEIIDRLLHEIRIEVNDSKVRRIRIQGDKVEVHTRVDLKFNVDGVTERHDRDQHLLILKVNGRWLIKNFYIE” is 1.1.

Source of the values: the NTF2 design screens of Basanta et al. (2020).
